# T1: KSRP KH3 (Homo sapiens, UniProt Q92945 322-386)
# T1 sequence: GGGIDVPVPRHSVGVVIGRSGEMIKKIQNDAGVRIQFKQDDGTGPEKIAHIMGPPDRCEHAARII
# T2: KSRP KH1-KH4 (referred to as KSRP) (Homo sapiens, UniProt Q92945 68-525)
# T2 sequence: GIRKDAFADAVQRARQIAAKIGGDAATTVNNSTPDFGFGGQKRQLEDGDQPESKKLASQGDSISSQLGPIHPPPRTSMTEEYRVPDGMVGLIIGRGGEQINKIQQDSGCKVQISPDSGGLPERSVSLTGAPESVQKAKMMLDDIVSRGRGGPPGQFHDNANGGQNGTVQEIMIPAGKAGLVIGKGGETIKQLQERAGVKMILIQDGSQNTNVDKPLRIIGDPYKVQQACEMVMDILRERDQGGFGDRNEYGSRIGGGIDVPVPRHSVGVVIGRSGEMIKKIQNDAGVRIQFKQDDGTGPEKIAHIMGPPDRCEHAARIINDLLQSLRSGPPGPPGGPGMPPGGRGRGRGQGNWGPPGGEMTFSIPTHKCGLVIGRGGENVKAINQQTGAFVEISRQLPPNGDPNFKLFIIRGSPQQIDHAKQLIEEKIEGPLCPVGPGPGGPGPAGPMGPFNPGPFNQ
# Assays:
# [1] = biological target: T1, KSRP KH3; assay: NMR titration
# [2] = biological target: T1, KSRP KH3; assay: NMR structure, NMR titration, ITC
# [3] = biological target: T2, KSRP KH1-KH4 (referred to as KSRP); assay: NMR 13C-1H
binder,measurement,setting,value
AGUGU (ssRNA) [AGGGU G3U],binding result,[1],binds
AGAGU (ssRNA) [AGGGU G3A],binding result,[1],binds
AGGGU (ssRNA),binding result,[2],binds
same,binding result,[3],binds
